{"source": "patent US8030043B2", "about": "“β-galactoside-α2,3-sialyltransferase, a gene encoding thereof, and a method for producing thereof” (Japan Tobacco Inc., priority 2005, dated 2011)", "key": {"[1]": {"assay": "Confirmation of α2,3 sialyltransferase activity of E. coli-expressed enzyme with pyridylaminated lactose, HPLC", "type": "biochemical", "settings": "pyridylaminated lactose 2.0 μM, CMP-sialic acid 5.7 μM, pH 6.0, 25° C., 6 hours", "method": "Using the enzyme obtained in Example 2, the enzymatic reaction was carried out using a pyridylaminated sugar chain as a glycosyl acceptor substrate. The pyridylaminated sugar chain used for analysis was pyridylaminated lactose (Galβ1-4Glc-PA, Takara Bio Inc., Japan). The glycosyl acceptor substrate, CMP-NeuAc and the enzyme were dissolved at 2.0 μM, 5.7 μM and 20 mU/ml, respectively, in 25 μl of 20 mM cacodylate buffer (pH 6.0), and then reacted at 25° C. for 3 hours. After the reaction, the reaction solution was treated at 100° C. for 2 minutes to inactivate the enzyme, followed by HPLC to analyze the reaction product.\nThe HPLC system used was Shimadzu LC10A (Shimadzu Corporation, Japan) and the analytical column used was Takara PALPAK Type R (Takara Bio Inc., Japan). The column which had been equilibrated with 100 mM acetate-triethylamine (pH 5.0) containing 0.15% N-butanol was injected with the reaction solution diluted with Eluent A (100 mM acetate-triethylamine, pH 5.0). For elution of the pyridylaminated sugar chain, Eluent A (100 mM acetate-triethylamine, pH 5.0) and Eluent B (100 mM acetate-triethylamine containing 0.5% n-butanol, pH 5.0) were used to successively elute the pyridylaminated sugar chain with a linear gradient of 30% to 100% Eluent B (0 to 35 minutes) and then 100% Eluent B (35 to 50 minutes). The analysis was performed under the following conditions: flow rate: 1 ml/min, column temperature: 40° C., detection: fluorescence (Ex: 320 nm, Em: 400 nm).\nAs in the case of Example 3, pyridylaminated lactose (Galβ1-4Glc-PA, PA-Sugar Chain 026, Takara Bio Inc., Japan) was used as a glycosyl acceptor to carry out the enzymatic reaction. After the reaction, the reaction solution was heated at 95° C. for 5 minutes to inactivate the enzyme, followed by HPLC analysis. It should be noted that the enzymatic reaction was accomplished at 25° C. for 6 hours using pyridylaminated lactose and CMP-sialic acid dissolved at 2.0 μM and 5.7 μM, respectively, in 25 μl of 20 mM cacodylate buffer (pH 6.0) (Reaction 1). On the other hand, a control experiment (Reaction 2) was carried out using a reaction solution free from CMP-sialic acid. Further, to clarify the retention time of standards, the crude enzyme solution was inactivated by thermal treatment (95° C., 5 minutes) and tested in the presence of pyridylaminated lactose and pyridylaminated α2,3-sialyllactose (pyridylaminated 3′-sialyllactose) (Neu5Acα2-3Galβ1-4Glc-PA, PA-Sugar Chain 029, Takara Bio Inc., Japan)."}, "[2]": {"assay": "Optimum temperature for enzyme activity", "type": "biochemical", "settings": "5° C. to 45° C. at 5° C. intervals, at the optimum pH of each enzyme", "method": "Purified enzymes were prepared to examine the optimum pH and temperature for β-galactoside-α2,3-sialyltransferase produced by the strain JT-ISH-467 as well as recombinant β-galactoside-α2,3-sialyltransferases produced by the third clone of ISH467-N2C0, the first clone of ISH224-N1C0 and the first clone of FAJ-N1C0.\nThe enzyme activity was measured at an interval of 5° C. starting from 5° C. up to 45° C. and at pH 5.0 for β-galactoside-α2,3-sialyltransferase produced by the strain JT-ISH-467, in cacodylate buffer (pH 5.5) for the third clone of ISH467-N2C0, in cacodylate buffer (pH 5.0) for the first clone of ISH224-N1C0, and in cacodylate buffer (pH 5.5) for the first clone of FAJ-N1C0.\nAs a result, as shown, in FIGS. 4-1 and 4-2, the enzyme activity was maximum at 25° C. for β-galactoside-α2,3-sialyltransferase produced by the strain JT-ISH-467, at 25° C. for the third clone of ISH467-N2C0, at 30° C. for the first clone of ISH224-N1C0, and at 20° C. for the first clone of FAJ-N1C0. […] It should be noted that enzyme activity at each temperature was expressed as relative activity, assuming at that the enzyme activity at a temperature where it reached a maximum was set to 100."}}, "data": [{"molecule": "ISH224-N1C0 first clone: JT-ISH-224 sialyltransferase lacking signal peptide region, nucleotides 73 to 1230 of SEQ ID NO: 28 (protein, listed as Photobacterium sp., CDS (1)..(1230) /gene=“224-23ST” /product=“Beta-galactoside-alpha-2,3-sialyltransferase”) MLVFCKKMFFSVFISLMILGGCNSDSNHNNSDGNITKNKTIEVYVDRATLPTIQQMTQIINENSNNKKLISWSRYPINDEELLESINGSFFKNNSELIKSLDSMILTNDIKKVIINGNTLWAADVVNIIKSIEAFGKKTEIELNFYDDGSAEYVRLYDFSKLPESEQEYKISLSKDNILSSINGTQPFENVVENIYGFSQLYPTTYHMLRADIFETNLPLRSLKGVLSNNIKQMKWDYFKTFNSQQKDKFYNFTGFNPDEIMEQYKASPNKNFIFVGTNSGTATAEQQIDILTEAKNPNSPIITKSIQGFDLFFKGHPSATYNKQIIDAHNMIEIYNKIPFEALIMTDALPDAVGGMGSSVFFSLPNTVENKFIFYKSDTDIENNALIQVMIELNIVNRNDVKLISDLQ", "values": [{"measurement": "α2,3 sialyltransferase activity (formation of pyridylaminated α2,3-sialyllactose)", "setting": "[1]", "value": "a peak of pyridylaminated α2,3-sialyllactose (pyridylaminated 3′-sialyllactose) was detected"}, {"measurement": "Temperature at which the enzyme activity was maximum (optimum temperature)", "setting": "[2]", "value": 30, "unit": "°C"}]}, {"molecule": "ISH467-N2C0 third clone: JT-ISH-467 sialyltransferase lacking signal peptide region, nucleotides 73 to 1230 of SEQ ID NO: 1, no mutation (protein, listed as Photobacterium phosphoreum, CDS (1)..(1230) /gene=“467-23ST” /product=“Beta-galactoside- alpha 2,3-sialyltransferase”) MFVFCKKIFFLIFISLMILGGCNSDSKHNNSDGNITKNKTIEVYVDRATLPTIQQMTQIINENSNNKKLISWSRYPINDETLLESINGSFFKNRPELIKSLDSMILTNEIKKVIINGNTLWAVDVVNIIKSIEALGKKTEIELNFYDDGSAEYVRLYDFSRLPESEQEYKISLSKDNIQSSINGTQPFDNSIENIYGFSQLYPTTYHMLRADIFETNLPLTSLKRVISNNIKQMKWDYFTTFNSQQKNKFYNFTGFNPEKIKEQYKASPHENFIFIGTNSGTATAEQQIDILTEAKKPDSPIITNSIQGLDLFFKGHPSATYNQQIIDAHNMIEIYNKIPFEALIMTDALPDAVGGMGSSVFFSLPNTVENKFIFYKSDTDIENNALIQVMIELNIVNRNDVKLISDLQ", "values": [{"measurement": "α2,3 sialyltransferase activity (formation of pyridylaminated α2,3-sialyllactose)", "setting": "[1]", "value": "found to have α2,3 sialyltransferase activity"}, {"measurement": "Temperature at which the enzyme activity was maximum (optimum temperature)", "setting": "[2]", "value": 25, "unit": "°C"}]}, {"molecule": "FAJ-N1C0 first clone: JT-FAJ-16 sialyltransferase lacking signal peptide region, nucleotides 67 to 1209 of SEQ ID NO: 30 (protein, listed as Vibrio sp., CDS (1)..(1209) /gene=“FAJ16-23ST” /product=“Beta-galactoside- alpha 2,3-sialyltransferase”) MKNIITKRMLIILSSLFTIIGCNNDNSTTTNNNAIEIYVDRATLPTIQQMTKIVSQKTSNKKLISWSRYPITDKSLLKKINAEFFKEQFELTESLKNIILSENIDNLIIHGNTLWSIDVVDIIKEVNLLGKNIPIELHFYDDGSAEYVRIYEFSKLPESEQKYKTSLSKNNIKFSIDGTDSFKNTIENIYGFSQLYPTTYHMLRADIFDTTLKINPLRELLSNNIKQMKWDYFKDFNYKQKDIFYSLTNFNPKEIQEDFNKNSNKNFIFIGSNSATATAEEQINIISEAKKENSSIITNSISDYDLFFKGHPSATFNEQIINAHDMIEINNKIPFEALIMTGILPDAVGGMGSSVFFSIPKEVKNKFVFYKSGTDIENNSLIQVMLKLNLINRDNIKLISDI", "values": [{"measurement": "α2,3 sialyltransferase activity (formation of pyridylaminated α2,3-sialyllactose)", "setting": "[1]", "value": "a peak of pyridylaminated α2,3-sialyllactose (pyridylaminated 3′-sialyllactose) was detected"}, {"measurement": "Temperature at which the enzyme activity was maximum (optimum temperature)", "setting": "[2]", "value": 20, "unit": "°C"}]}]}
